Results: patent US20150176059
Like-named read-outs stand apart in the source and are kept apart here.

What was measured:
[1] = test system: Z05-D DNA polymerase (Thermus sp. Z05?); conditions: SYBR Green melting, 50 mM Tris pH 8.0, 100 mM KCl, 2.5 mM MgCl2
[2] = test system: Z05 DNA polymerase (Thermus sp. Z05?); test: inhibition; conditions: KRAS PCR, 60 C, 10x excess, no UNG, 20 nM Z05, 3 mM MgCl2

“CGATCATCTCAGAACATTCTTAGCGTTTTGTTCTTGTGTATGATCG [U0 (NTQ21-46A)]” gave a binding ([1]; aptamer Tm 60.7 C with 20 nM Z05-D vs 59.0 C without) of 1.7 °C and an activity ([2]; no-target Ct 32.0 vs 25.7 without aptamer) of 32 Ct.

In the case of “CGATCATCTCAGAACATTCTTAGCGTTTUGUUCUUGTGTATGATCG [U2]”, the binding ([1]; dU replacing dT at positions shown as u (medium dU content), aptamer Tm 59.5 C with 20 nM Z05-D vs 57.9 C without) is reported as 1.6 °C and the activity ([2]; dU replacing dT at positions shown as u (medium dU content), no-target Ct 31.2 vs 25.7 without aptamer) is reported as 31.2 Ct.

“CGAUCAUCTCAGAACATTCTTAGCGTTTTGTTCTTGTGTAUGAUCG [U1]” showed a binding ([1]; dU replacing dT at positions shown as u (low dU content), aptamer Tm 58.4 C with 20 nM Z05-D vs 56.8 C without) of 1.6 °C and an activity ([2]; dU replacing dT at positions shown as u (low dU content), no-target Ct 31.7 vs 25.7 without aptamer) of 31.7 Ct.

Sequence “CGAUCAUCTCAGAACATTCTTAGCGTTTUGUUCUUGTGTAUGAUCG [U3]” has a binding ([1]; dU replacing dT at positions shown as u (high dU content), aptamer Tm 57.6 C with 20 nM Z05-D vs 55.6 C without) of 2 °C and an activity ([2]; dU replacing dT at positions shown as u (high dU content), no-target Ct 30.8 vs 25.7 without aptamer) of 30.8 Ct.
